Measurements reported in the supplement of paper PMC12764529.
± gives the half width of the 95% confidence interval.

Assay: folding stability dG unfold (combined trypsin and chymotrypsin); higher = more stable
Protocol: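 Folding stability of de novo designed mini-proteins (<80 aa, no Cys; designed by TrROS, TrMRF, ProteinMPNN and the joint model) was measured by cDNA display proteolysis with trypsin and chymotrypsin. Each protease was used at 11 concentrations in a threefold dilution series plus a no-protease condition. K50 was inferred by Bayesian fitting of sequencing counts, and dG unfold was derived against a sequence-predicted unfolded-state K50 (Tsuboyama et al. method). Sequences shown include variable-length N-terminal GS-type padding (SAGGSAGG...) inside a display construct carrying a PA tag. Rows were kept only if the AF2 dimer inter-PAE was >15, to exclude likely homo-oligomers.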

Sequence	folding stability dG unfold [kcal/mol]
EPEYVVFVDINPVFTRVDENGNVLEEFPRKVPYTGPGKDPEKVREELEREYGPPVKILKTLPKSEVDAGLLS [r1_493_JUSTAS]	< -1
GMRPVTATIEIGPNGKLTLQPAVGPSTVVPVKSKEEGIAVVKELVPPDRPITLTFYEKSKKISTEPIEIPPS [r1_276_JUSTAS]	< -1
KVPAGVEDVKVVKGPLTVKITAPVKNPNVPIKVGNKDGKVVSEKWKVDKAAGKVTVEVPVKKANEVTFNPES [r1_138_TrMRF]	< -1
MKIVIDKDGNIRIEIIDKDGKKITLTLPVKTLEEALQKIKDLIRELFPDAKDLKVKVVEVKDGYVVIEVEPS [r1_389_TrROS_Hall]	> 6
PIITVSSLEELKKAIKELVEKIVEEAKKAGYPDKKVIVSIPVVLIDEKTGKPKILPILIEIYPDGTVKIYGS [r1_316_TrMRF]	> 6
PINPEIAEKLKVAIANKLKEAGYKVKSVSISPLPDGTISGKVGDKTVTLPLPNGGTAGISVEAEKVSPEEAS [r1_31_TrMRF]	< -1
SADWYYWKNPKDGKEHTVDPEELSPEFAKKGIEPEEPVPPVINIDVDSAEQADELADEFPNKVQVQPNGSAG [r14_638_TrROS]	< -1
SAGAKLYTVKAPGSSELLKGLKEKGVEILGTEENVVVVKVPVVPPLTPEAIEEAKKEGLTLEEAIKKASAGG [r19_115_TrMRF]	< -1
SAGGEFKLKREEDPDGERKITLEFPGWPYEVVIPKNAKDLPPGNPIYVRGGGGTRTMPIKDLLPELLNSAGG [r13_97_TrROS]	< -1
SAGGEGEELIIPSSFPLEKIEELEKAHPDAKAEIVEINLRGPVLLPGGGVRPVPSFLKVRLYRREERSAGGS [r8_172_TrMRF]	< -1
SAGGGGMTVEPVAERRFPSGRRITFYRRELPTPTVLEDVVVEYPDGSVRTITVPVGEEAAAVAAVLASAGGS [r16_588_JUSTAS]	< -1
SAGGGSSMSPISDQQTSSSLPDGTTVTRTTTTYPTSVLVTTTTTDPATGAPTTTTTTYTTPGSSVAGSAGGS [r16_419_JUSTAS]	< -1
SAGGGWEKIPITPNDKNQAKEIADEFADKLQQDPGIPKEVEIDVQPPPNNQYWIEVEYPGKKLEIPISAGGS [r16_356_TrROS]	< -1
SAGGIRMPPGQTQTFKLPGRKIEVHMGPNGPIYIEIENPGNGEPVEVPMRGDMTIDEMADAILDKLGSAGGS [r8_158_TrROS]	< -1
SAGGKDAIVNVVEIPIKIEVKTKTKNPILPDGIPIPETELEVKIEIPIKVKPVKVKLEKPGKIVSVEDSAGG [r13_148_TrMRF]	< -1
SAGGKPMIHINMEENPNGNPYMRVQVMRMDPKNNGWKPVEEVRFDSPQDMRDEAKELADKEGVYLMISAGGS [r16_512_TrROS]	< -1
SAGGMEEIAEKLPVTKIETLEVDPEPPVVKVKLTLKDESGTEKEIELTIELPPEPLPVPKFPPERILLSAGG [r13_608_JUSTAS]	< -1
SAGGMIVLEFTDPSELEKLEEKVEEIKEELIKEGIKPPNVEIKVTRTTRKLPNGTERYTAPVSIKLPSAGGS [r16_591_JUSTAS]	< -1
SAGGMKTIEYPVVMDEEEAVKLVEELVAKAKAEGEETVVKVEVYRIGKGPDGVPTREKLGTYEVEVPGSAGG [r13_974_JUSTAS]	< -1

Sequence	folding stability dG unfold [kcal/mol]
SAGGMKTIKLPPFTEEELEKVIEEAEKNPNSDVKITLPEGKEYYIKPPGKLKELKVEELPPLPESLESAGGS [r16_248_JUSTAS]	< -1
SAGGMKTVVTTEPATFDATDPNTGVPIGTVTIGPVVTTKPPNAVTTHYTFRIGGTEVATSTTTNPGLASAGG [r13_758_JUSTAS]	< -1
SAGGMRLADTLEEVENAAPGEIVALRAPDPLTPRPVVLVFRNPDGELGPLAYADADGNIHLPEELKEAGSAG [r5_490_TrMRF]	< -1
SAGGMSIRELLKEKGIPIKVENEPTDGRPRMKITIQDNDKPVKIDMPMDDPERMIRDAAKELGLKPISAGGS [r8_226_TrROS]	< -1
SAGGMTLEEVRALAQRVSREPLPGGGSRWVVTFPRPVPGGPAAPVTREIPVPADRPDATEEEVLARLVSAGG [r13_319_JUSTAS]	< -1
SAGGMTSEVIETTEEEPERLIKKTFKVTYDENGTPKPELLKVETSPVPEEEIDPSNAPKEKAEKLGLLSAGG [r13_964_JUSTAS]	< -1
SAGGMVVELPSGLSPEELERAAEEIAAELPRRGVDPVEVTIEPVREVAPPDGPPVRLYRITIDTVPPSAGGS [r16_266_JUSTAS]	< -1
SAGGNKITIEVNMNPEEGYYMVPIEIPRRDPNGEPEKRKIEVMVPMSPNAQEKAKNLANKLGIDKIYSAGGS [r8_381_TrROS]	< -1
SAGGPGKYRVIFYPKDTDKPIEADVPASHIKKFDPKNNFIEISAPPGPTLTIPDPDKVKKVIIEPIPSAGGS [r8_111_TrMRF]	< -1
SAGGPNFEIEPEWDPDNGIVKETIKVPPGMTPEAINDALEIEFPDGMEVQIKPIKDGTIKVYMRMPKSAGGS [r8_255_TrROS]	< -1
SAGGPPKIKITDIRPNKGHMRYKIKDPNKEVEIHMHGNSMHIEYPDGKEKTFDGPGSFEDAAKRIIEKSAGG [r13_98_TrROS]	< -1
SAGGPPKKIEDIKIEDWRYDPENNQVTNTIELENDNGKEREIDVQMPNEDMEDMPPEEMLKAAKDFIDSAGG [r13_512_TrROS]	< -1
SAGGRGPGLPVSERKIVETRDLDPDEVSEEEIAERIKEENPDAVVEELEVDTKESKAVFKIKVKKLESAGGS [r8_202_JUSTAS]	< -1
SAGGRYLTLRIPPNHPGDIDIEPVPADDMPPGWGYKIYSPKKGHTQTFPLDNADELLDHPGIDEIEPVSAGG [r19_302_TrROS]	< -1
SAGGSAASRVSVEKLPNGTVVTPVEVEVTTYKPYPSYDGTPTTVPVTTRTTRTVTTEGNVVTTEVASAGGSA [r15_883_JUSTAS]	< -1
SAGGSAATVVDPSTGSTYTFTPEGSGYRITRTLVTPDPTSDAVSTAPTTELLPPSEIPPELLARLSSAGGSA [r15_703_JUSTAS]	< -1
SAGGSAEKPIPFGNYQIRIHEIDPKEGKITIHVPDNMPPNMKEQARDWLQERGLPIEVEPVPAEDISAGGSA [r15_570_TrROS]	< -1
SAGGSAFFRIKVEKNNGKKREIMFPIPENHDPSEAREMVKELAKNIARKQGHPNVPIKVTDIEPFPSAGGSA [r15_463_TrROS]	< -1
SAGGSAGGAEAVEAAKAKLPPDEERTVVVPDPDDPSRVTTYTLTARGDEVEVPVTTEPVPPGLESAGGSAGG [r6_393_JUSTAS]	< -1

Sequence	folding stability dG unfold [kcal/mol]
SAGGSAGGDNKPLRVRIRSPANGQKMKFKIKPDKIEPGKTIEIKHGDKPHTFNINPAQIDELEPSAGGSAGG [r6_461_TrROS]	< -1
SAGGSAGGEKPLKVTIKVKEKRLTENGIPEEFEKEIVVEAPLEEATKLVKAIPKDKVVSVEVEGSAGGSAGG [r6_984_TrMRF]	< -1
SAGGSAGGEVEEEALKVAEELRREGKTGPVEKTVDIVVKTPENVPIPLNITVTVEPPSGVVTVNSAGGSAGG [r6_102_JUSTAS]	< -1
SAGGSAGGFTFRDPENGRKITIEPQPNPDGPMYYNIEVRDPDNNENKTINFPMPLNEIEDLAKDSAGGSAGG [r6_996_TrROS]	< -1
SAGGSAGGMITDADGNAFEVASAEPFELANGEPVIRFRFKGSGEIRTVPAADIPDGIPEEAKFESAGGSAGG [r6_370_TrMRF]	< -1
SAGGSAGGMKITEVTSEAPVPETGEVVRVAKTEDGSTITTVEYPGTGETRVYREKPDEVTPIALSAGGSAGG [r6_796_JUSTAS]	-0.865 ± 0.79
SAGGSAGGMKTIPLPGWTPEEFREVIKKHGGTFTIERPGGEKVTVDFTPDSEPPPEEPHTLIISSAGGSAGG [r6_304_JUSTAS]	< -1
SAGGSAGGMPLRVDFRPSDSDEVTTRELPLTGDEEEARARVEAAAPPGVASVDLDPEAFRAAAASAGGSAGG [r6_889_JUSTAS]	< -1
SAGGSAGGNTITLPLPDGRKLTIDMHPNPDGNMYVNIDVQTPGKEKEITVPMDNPAIREAVKELSAGGSAGG [r6_607_TrROS]	< -1
SAGGSAGGPKPAKIKEVPFKMRHPGNGQPHKMEIKEVRPDGMIEIDFPNGEEHRIPGMKIDEIESAGGSAGG [r6_435_TrROS]	< -1
SAGGSAGGPPPLIVTIKLEHKREKPNGEPEKRKHEIIVDAPNEQADKLAKKMPPDNVEDVEIAKSAGGSAGG [r6_985_TrROS]	< -1
SAGGSAGGPPVVTKTDPNTGAVYTKVGDTWTSTPVPPPVVVRPVPLYDPDGRPLATGYTVLRLESAGGSAGG [r6_313_JUSTAS]	< -1
SAGGSAGGPVIPTPSDLVVEVGKLSEELSFLSKSVRPNGPEELVFDSSVLVEEGVKVLKPSDRRSAGGSAGG [r6_586_JUSTAS]	< -1
SAGGSAGGSAAPVSEREVTLTGSGTPRVVPVRVLGEAASPSESIATEATLPDGRPLRLTLRESAGGSAGGSA [r18_54_JUSTAS]	< -1
SAGGSAGGSAASNGPLPVPLPETVIEAPLDEVPDEEIRARLPEELAEEFLRRMPPDATVLLSAGGSAGGSAG [r3_326_JUSTAS]	< -1
SAGGSAGGSAEEEKTVVEEKVEVKVEVKLKAPPPPEVTVSVELDEETNELKITASAEALKKSAGGSAGGSAG [r3_186_TrROS_Hall]	< -1
SAGGSAGGSAEEISPEGVATRTLPDGRTVELTQDPAKGTVTTTVYTPSGTPVSSSTTPVNPSAGGSAGGSAG [r3_447_JUSTAS]	< -1
SAGGSAGGSAEELAKKLAEELGVKVEVEEKDGKLVVKIEKKKAKPKPKKVEKKKYYSEEELKSAGGSAGGSA [r18_27_TrROS_Hall]	< -1
SAGGSAGGSAGDKPIKIFWNPEFPGRVYIKTPDKERPVPLNDLEELGIDEVVPMEEAMEQSAGGSAGGSAGG [r17_88_TrROS]	< -1
